A word on the stoichiometry N: it is the number of molecules, sites or subunits per partner or assembly.

Bridges are numbered along the chain shown (N, C = ends). Where no end group is shown, it is not given here.

This assay has as its target T1, LptAm of Klebsiella pneumoniae (truncated but functional variant of the LPS transport periplasmic protein … (Klebsiella pneumoniae, UniProt A0A377YZM8 28-159, 15N-labeled)).
T1 construct: LptA, periplasmic LPS transport protein of Klebsiella pneumoniae, amino acids 28-159 (LptAm); synthetic gene in pET24a(+); also called 15N-LptAm; source: E. coli BL21, purified (Ni-NTA, size-exclusion chromatography), 15N-labeled in M9 minimal medium
T1 sequence: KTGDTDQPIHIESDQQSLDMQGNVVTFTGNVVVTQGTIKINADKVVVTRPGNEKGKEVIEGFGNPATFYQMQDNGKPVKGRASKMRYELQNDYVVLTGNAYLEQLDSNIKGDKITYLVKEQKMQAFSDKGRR
Put plainly: NMR titration; 15N-1H HSQC of 15N-LptAm free and with Ana-thanatin at protein:peptide molar ratios 1:1 and 1:2; 298 K. Conditions: both partners purified.

B1: Ana-thanatin (16-residue thanatin from Anasa tristis) (peptide)
peptide: VPIYYCNRKTGKCRRL
modifications: disulfide 6-13 (inferred)
notes: thanatin of the squash bug Anasa tristis, 16 residues, V1-L16; Single disulfide-bonded beta-hairpin peptide; the disulfide would join C6 and C13, the only two Cys; also called Anasa tristis thanatin; Ana-thanatin peptide; source: synthetic peptide (chemically synthesized by GenScript)
Take B1: the “stoichiometry N” value worked out at 1.
